Measured values: patent US20210054076A1 (Chugai, published 2021)

Tests used:
human CLDN6 [1] = target: T1, human CLDN6 (human, UniProt P56747 1-220); experiment: cell-based or functional assay
T1 sequence: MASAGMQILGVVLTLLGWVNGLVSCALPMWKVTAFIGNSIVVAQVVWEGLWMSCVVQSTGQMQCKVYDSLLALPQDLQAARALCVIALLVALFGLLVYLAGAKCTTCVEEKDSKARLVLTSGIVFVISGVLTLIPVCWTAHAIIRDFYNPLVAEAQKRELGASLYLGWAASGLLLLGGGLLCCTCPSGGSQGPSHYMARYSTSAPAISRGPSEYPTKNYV

human CLDN6 [2] = target: T1, human CLDN6; experiment: cell-based or functional assay; remark: listed apart in the source
human CLDN4 = target: T2, human CLDN4 (human, UniProt O14493 1-209); experiment: FACS on Ba/F3 transfectant, antibody 20 micro g/ml, FITC anti-human IgG
T2 construct: whole, on cells; also called hCLDN4; BaF3_hCLDN4
T2 sequence (looked up): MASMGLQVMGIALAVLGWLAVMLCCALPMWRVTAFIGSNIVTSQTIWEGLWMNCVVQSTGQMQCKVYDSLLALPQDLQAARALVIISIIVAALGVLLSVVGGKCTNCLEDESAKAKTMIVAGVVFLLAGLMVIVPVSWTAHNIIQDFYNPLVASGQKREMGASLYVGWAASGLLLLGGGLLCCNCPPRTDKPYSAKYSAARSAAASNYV
Method: (§1) To evaluate the binding activity and specificity of the generated CLDN6-TRABs against CLDN6 and other Claudin family antigens, FACS analysis was conducted as follows. Ba/F3 transfectants stably express a kind of protein selected from human CLDN3 (hCLDN3), human CLDN4 (hCLDN4), human CLDN6 (hCLDN6), human CLDN9 (hCLDN9), mouse CLDN3 (mCLDN3), mouse CLDN4 (mCLDN4) and mouse CLDN6 (mCLDN6), were generated using similar method described in WO2008/087978, and named BaF3_hCLDN3, BaF3_hCLDN4, BaF3_hCLDN6, BaF3_hCLDN9, BaF3 mCLDN3, BaF3 mCLDN4, BaF3 mCLDN6, respectively. Each of the CLDN6-TRABs (CH01/CD3, CH02/CD3, CH03/CD3, CH04/CD3) was incubated with the Ba/F3 transfectants at an antibody concentration of 20 micro g/ml in FACS buffer (0.5% BSA containing autoMACS Rinsing Solution, Miltenyl Biotec). Binding activities of each CLDN6-TRAB to the Claudin family proteins (hCLDN3, hCLDN4, hCLDN6, hCLDN9, mCLDN3, mCLDN4, mCLDN6) were examined by incubation of FITC-conjugated goat anti human IgG (BeckmanCoulter), represented as Geo-mean value. Sample processing was conducted on FACSVerse (BD).
(§2) Claudin family proteins have two extracellular domains. The sequence of the first extracellular domain in human CLDN9 is almost the same compared with the first extracellular domain of human CLDN6. For the second extracellular domain of human CLDN9, there are only two amino acids different from the ones at their corresponding positions in human CLDN6 (FIG. 2). The glutamine at position 156 of human Claudin 6 (position 156 in the sequence shown in SEQ ID NO: 44 or 45) was substituted to leucine to make a human CLDN6 mutant comprising the same amino acid as human Claudin 9 at position 156. This human CLDN6 mutant was named as hCLDN6(Q156L) (SEQ ID NO: 53). Ba/F3 transfectant stably express hCLDN6(Q156L) was generated using similar method described in WO2008/087978. The established Ba/F3 transfectant was named BaF3_hCLDN6(Q156L). Binding activity of the generated CLDN6-TRABs against BaF3_hCLDN6(Q156L) was measured using the above mentioned FACS method and the results are shown in FIG. 1 and Table 3.

human CLDN3 = target: T3, human CLDN3 (human, UniProt O15551 1-220); experiment: as above
T3 construct: whole, on cells; also called hCLDN3; BaF3_hCLDN3
T3 sequence (looked up): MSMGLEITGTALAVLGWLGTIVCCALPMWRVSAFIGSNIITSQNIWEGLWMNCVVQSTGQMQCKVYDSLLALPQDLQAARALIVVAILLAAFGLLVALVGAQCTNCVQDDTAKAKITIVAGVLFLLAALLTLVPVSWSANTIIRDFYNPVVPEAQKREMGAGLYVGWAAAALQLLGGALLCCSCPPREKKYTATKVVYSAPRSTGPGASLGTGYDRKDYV
Method: as §1, §2

human CLDN9 = target: T4, human CLDN9 (human, UniProt O95484 1-217); experiment: as above
T4 construct: whole, on cells; also called hCLDN9; BaF3_hCLDN9
T4 sequence (looked up): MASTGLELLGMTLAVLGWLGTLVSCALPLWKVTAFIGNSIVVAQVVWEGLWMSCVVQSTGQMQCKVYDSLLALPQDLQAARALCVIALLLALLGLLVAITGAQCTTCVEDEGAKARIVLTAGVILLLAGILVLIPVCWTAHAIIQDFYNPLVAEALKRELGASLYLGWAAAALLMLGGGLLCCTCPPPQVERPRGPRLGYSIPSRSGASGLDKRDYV
Method: as §1, §2

hCLDN6(Q156L) = target: T5, hCLDN6(Q156L) (human, UniProt P56747 1-220); experiment: as above
T5 construct: Stably expressed on Ba/F3 cells; also called human CLDN6 mutant; BaF3_hCLDN6(Q156L)
T5 chain: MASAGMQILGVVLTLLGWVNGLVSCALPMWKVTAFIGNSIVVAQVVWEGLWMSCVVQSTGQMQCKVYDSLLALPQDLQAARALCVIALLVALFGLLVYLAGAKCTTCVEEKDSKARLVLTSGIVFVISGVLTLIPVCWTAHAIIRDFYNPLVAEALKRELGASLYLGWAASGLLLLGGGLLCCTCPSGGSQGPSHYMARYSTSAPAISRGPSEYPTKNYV
Method: as §1, §2

mouse CLDN6 = target: T6, mouse CLDN6 (mouse, UniProt Q9Z262 1-219); experiment: as above
T6 construct: whole, on cells; also called mCLDN6; BaF3_mCLDN6
T6 sequence (looked up): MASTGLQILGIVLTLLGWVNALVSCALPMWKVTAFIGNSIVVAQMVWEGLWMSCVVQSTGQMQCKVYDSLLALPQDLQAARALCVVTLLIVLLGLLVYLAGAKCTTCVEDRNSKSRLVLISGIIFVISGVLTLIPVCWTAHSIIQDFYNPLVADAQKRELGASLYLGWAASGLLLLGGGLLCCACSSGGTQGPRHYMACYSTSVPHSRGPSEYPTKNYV
Method: as §1, §2

human CLDN6 [3] = target: T1, human CLDN6; experiment: as above
Method: as §1, §2

mouse CLDN4 = target: T7, mouse CLDN4 (mouse, UniProt O35054 1-210); experiment: as above
T7 construct: whole, on cells; also called mCLDN4; BaF3_mCLDN4
T7 sequence (looked up): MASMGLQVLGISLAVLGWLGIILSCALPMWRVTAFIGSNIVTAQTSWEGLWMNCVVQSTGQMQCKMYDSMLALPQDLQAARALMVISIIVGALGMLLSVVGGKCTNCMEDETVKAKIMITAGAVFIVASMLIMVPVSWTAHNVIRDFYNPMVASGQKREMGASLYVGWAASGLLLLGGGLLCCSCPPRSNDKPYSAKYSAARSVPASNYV
Method: as §1, §2

mouse CLDN3 = target: T8, mouse CLDN3 (mouse, UniProt Q9Z0G9 1-219); experiment: as above
T8 construct: whole, on cells; also called mCLDN3; BaF3_mCLDN3
T8 sequence (looked up): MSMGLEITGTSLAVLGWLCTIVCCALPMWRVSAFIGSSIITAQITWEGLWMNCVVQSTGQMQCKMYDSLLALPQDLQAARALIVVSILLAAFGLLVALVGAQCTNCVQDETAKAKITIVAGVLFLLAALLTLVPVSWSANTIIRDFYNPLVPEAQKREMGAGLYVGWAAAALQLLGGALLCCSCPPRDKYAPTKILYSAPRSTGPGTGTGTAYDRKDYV
Method: as §1, §2

EC50 (read off the curve), Jurkat/NFAT-RE luciferase reporter, target cells ABC-1 (human CLDN6 [1]): ~0.04 nM | EC50 (read off the curve), Jurkat/NFAT-RE luciferase reporter, target cells PA-1 (human CLDN6 [2]): ~0.02 nM | Geo-mean value of FACS (human CLDN4): 35 | Geo-mean value of FACS (human CLDN3): 37 | Geo-mean value of FACS (human CLDN9): 184 | Geo-mean value of FACS (hCLDN6(Q156L)): 98 | Geo-mean value of FACS (mouse CLDN6): 559 | Geo-mean value of FACS (human CLDN6 [3]): 7700 | Geo-mean value of FACS (mouse CLDN4): 22 | Geo-mean value of FACS (mouse CLDN3): 26
B1: CH03/CD3 (bispecific antibody, human IgG1, kappa, N297A)
heavy 1: EVQVEQSGPELVKPGASVKISCKTSGYTFTEYTMHWVKQSHGKSLEWIGGINPNNGNTRYNQKFKGKATLTVDKSSSTAYMELRTLTSEDSAVYYCARCGDFDLFFFFAYWGQGTLVTVSAASTKGPSVFPLAPSSKSTSGGTAALGCLVKDYFPEPVTVSWNSGALTSGVHTFPAVLQSSGLYSLSSVVTVPSSSLGTQTYICNVNHKPSNTKVDKKVEPKSCDKTHTCPPCPAPELRGGPKVFLFPPKPKDTLMISRTPEVTCVVVDVSHEDPEVKFNWYVDGVEVHNAKTKPREEQYASTYRVVSVLTVLHQDWLNGKEYKCKVSNKALPAPIEKTISKAKGQPREPQVYTLPPSREEMTKNQVSLTCLVKGFYPSDIAVEWESNGQPENNYKTTPPYLDSDGSFFLYSKLTVDKSRWQQGNVFSCSVMHEALHNHYTQESLSLSP
light 1: DIVMTQSQKFMSTSVGDRVSVTCKASQNVGSNVAWYQQKPGQSPEGLISSASSRFSGVPDRFTGSGSGTDFTLTITNVQSEDLAEYFCQQYNSYPFTFGSGTELEIKRTVAAPSVFIFPPSDEQLKSGTASVVCLLNNFYPREAKVQWKVDNALQSGNSQESVTEQDSKDSTYSLSSTLTLSKADYEKHKVYACEVTHQGLSSPVTKSFNRGEC
heavy 2: QVQLVESGGGVVQPGGSLRLSCAASGFTFSNAWMHWVRQAPGKGLEWVAQIKDKSQNYATYVAESVKGRFTISRADSKNSIYLQMNSLKTEDTAVYYCRYVHYAAGYGVDIWGQGTTVTVSSASTKGPSVFPLAPSSKSTSGGTAALGCLVKDYFPEPVTVSWNSGALTSGVHTFPAVLQSSGLYSLSSVVTVPSSSLGTQTYICNVNHKPSNTKVDKKVEPKSCDKTHTCPPCPAPELRGGPKVFLFPPKPKDTLMISRTPEVTCVVVDVSHEDPEVKFNWYVDGVEVHNAKTKPREEQYASTYRVVSVLTVLHQDWLNGKEYKCKVSNKALPAPIEKTISKAKGQPREPQVYTLPPSRKEMTKNQVSLTCLVKGFYPSDIAVEWESNGQPENNYKTTPPYLDSDGSFFLYSKLTVDKSRWQQGNVFSCSVMHEALHNHYTQKSLSLSP
light 2: DIVMTQSPLSLPVTPGEPASISCRSSQPLVHSNRNTYLHWYQQKPGQAPRLLIYKVSNRFSGVPDRFSGSGSGTDFTLKISRVEAEDVGVYYCGQGTQVPYTFGQGTKLEIKRTVAAPSVFIFPPSDEQLKSGTASVVCLLNNFYPREAKVQWKVDNALQSGNSQESVTEQDSKDSTYSLSSTLTLSKADYEKHKVYACEVTHQGLSSPVTKSFNRGEC
notes: Made by Fab arm exchange of the bivalent anti-CLDN6 antibody CH03 with the bivalent anti-CD3 antibody CD3-1; human IgG1 constant region; One anti-CLDN6 arm and one anti-CD3 arm; also called CLDN6-TRAB; CLDN6-targeted T-cell redirecting bispecific antibody
